{"source": "paper PMC11440976", "about": "“Optimization and Evaluation of Al^18F Labeling Using a NOTA—or RESCA1-Conjugated AE105 Peptide Antagonist of uPAR” (Frontiers in Nuclear Medicine, 2021)", "molecules": {"B1": {"name": "NOTA-AE105 (peptide)", "chain": "DXFSRYLWS", "modifications": "NOTA chelator conjugated at the N-terminal; Cha (cyclohexylalanine) at position 2; (D)Ser at position 4; (D)Arg at position 5"}, "B2": {"name": "AE105 (peptide)", "chain": "DXFSRYLWS", "modifications": "Cha (cyclohexylalanine) at position 2; (D)Ser at position 4; (D)Arg at position 5"}, "B3": {"name": "RESCA1-AE105 (peptide)", "chain": "DXFSRYLWS", "modifications": "RESCA1 chelator conjugated at the N-terminal; Cha (cyclohexylalanine) at position 2; (D)Ser at position 4; (D)Arg at position 5"}, "B4": {"name": "AE105-mut (peptide)", "chain": "D[Cha]E[dS][dR]YLES"}}, "key": {"uPAR^1−283 [1]": {"target": "T1, uPAR^1−283 (Homo sapiens, UniProt Q03405)", "T1 construct": "10 μg/mL uPAR^1−283 in 10 mM sodium acetate pH 5.0 was covalently immobilized on a CM5 sensor chip; made in house", "T1 sequence (Q03405 23-305)": "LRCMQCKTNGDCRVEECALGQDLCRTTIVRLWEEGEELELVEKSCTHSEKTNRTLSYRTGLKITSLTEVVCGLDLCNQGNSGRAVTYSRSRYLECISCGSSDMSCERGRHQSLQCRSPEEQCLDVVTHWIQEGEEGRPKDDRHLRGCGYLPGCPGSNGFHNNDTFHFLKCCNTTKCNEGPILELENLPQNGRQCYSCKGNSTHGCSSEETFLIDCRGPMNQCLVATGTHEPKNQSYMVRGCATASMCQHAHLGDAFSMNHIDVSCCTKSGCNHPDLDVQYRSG", "assay": "SPR binding kinetics of peptides to immobilized uPAR (Biacore T200, single cycle)", "settings": "NB = no binding; for kon / koff: uPAR immobilized on CM5 chip, peptide in solution, global fit, ± standard error of fit; for kon: five serial 2-fold dilutions, 10 mM HEPES, 150 mM NaCl, 3 mM EDTA, 0.05% P-20, pH 7.4, 20°C, read-out: kon (association rate constant); for koff: read-out: koff (dissociation rate constant)", "procedure": "Binding kinetics of the peptides-uPAR interactions were determined with surface plasmon resonance (SPR) on a Biacore T200™ system (Cytiva), as outlined ([10]). In brief; 10 μg/mL uPAR^1−283 in 10 mM sodium acetate pH 5.0 was covalently immobilized on a CM5 sensor chip via amine coupling yielding a surface density of 905-1,333 RU (~26–39 fmol/mm^2) ([11]). Subsequently, we measured the binding kinetics of the various peptides to immobilized uPAR with single cycle protocols in which the peptides were injected as five serial 2-fold dilutions for 200 s with a short dissociation phase in between (100 s). The last analyte injection was followed by a 1,000 s long dissociation phase. In the end of each cycle, two consecutive injections of 0.1 M acetic acid in 0.5 M NaCl regenerated the sensor chip. All experiments were run with a flowrate of 50 μl/min in 10 mM HEPES, 150 mM NaCl, 3 mM EDTA, and 0.05% (v/v) surfactant P-20 at pH 7.4 at 20°C. The kinetic rate constants (kon and koff) as well as the KD (koff/kon) were determined by non-linear regression fitting of the curves to a simple bimolecular interaction model. We applied the BiacoreT200 Evaluation^TM 3.0 software for the global fitting. Additional binding kinetic curves is provided in the Supplementary Material."}, "uPAR·uPA interaction": {"target": "uPAR·uPA interaction (Homo sapiens, UniProt Q03405)", "sequence (Q03405 23-305 limits assumed)": "as the sequence (Q03405 23-305) above", "assay": "SPR competition of the uPAR·uPA interaction (uPAR in solution, immobilized pro-uPA^S356A)", "type": "binding", "settings": "2 nM uPAR incubated with 3-fold dilution series of peptide (0.076 nM to 1.5 μM), pH 7.4, 20°C, four-parameter dose-response fit, n = 3, ± standard error", "procedure": "The IC50-values of RESCA-AE105, NOTA-AE105, AE105 (Asp-Cha-Phe-(D)Ser-(D)Arg-Tyr-Leu-Trp-Ser) and AE105-mut (Asp-Cha-Glu-(D)Ser-(D)Arg-Tyr-Leu-Glu-Ser) on the uPAR·uPA interaction were determined with SPR on a Biacore 3000™ instrument or a Biacore T200™ system (Cytiva). The set-up is overall as described previously ([12]). In brief, we obtained a high surface density of pro-uPA^S356A by immobilizing >5,000 RU (~ 0.1 pmol pro-uPA/mm^2) on a CM5 sensor chip. […] For the analysis, we incubated 2 nM uPAR with a 3-fold dilution series of the peptides (ranging from 0.076 nM to 1.5 μM) and the νobs was measured for 300 s at 20°C with a flow rate of 50 μL/min. The running buffer contained 10 mM HEPES, 150 mM NaCl, 3 mM EDTA and 0.05 % (v/v) surfactant P20, pH 7.4. The sensor chip was regenerated with two consecutive injections of 0.1 M acetic acid, 0.5 M NaCl in the end of each cycle. In parallel, we measured a standard curve (2-fold dilution of uPAR covering 0.06–2 nM). This standard curve included one repeated concentration point at the end to validate the biological integrity of the sensor chip."}, "uPAR^1−283 [2]": {"target": "T2, uPAR^1−283 (UniProt Q03405-1 23-305)", "T2 sequence (Q03405 23-305)": "as above", "assay": "SPR; uPAR^1−283 immobilised on a CM5 chip by amine coupling (905-1,333 RU); peptides injected in single cycle protocols, five serial 2-fold dilutions; 10 mM HEPES, 150 mM NaCl, 3 mM EDTA, 0.05% P-20, pH 7.4, 20°C; Biacore T200; simple bimolecular model, global fit", "settings": "both partners purified"}, "uPAR^1−283 [3]": {"target": "T2, uPAR^1−283", "assay": "SPR; competition in solution: 2 nM uPAR incubated with 3-fold dilution series of the peptides (0.076 nM to 1.5 μM), free uPAR read by its association rate on pro-uPA^S356A immobilised at high density (>5,000 RU) on a CM5 chip; 10 mM HEPES, 150 mM NaCl, 3 mM EDTA, 0.05% P20, pH 7.4, 20°C; four-parameter dose-response fit, n = 3", "settings": "both partners purified"}}, "note": "Where a SMILES comes first, the peptide text is derived from it. Where no end group is shown, it is not given here. [ ]: non-standard residue; d: D form. Cha = N[C@@H](CC1CCCCC1)C(=O)O", "data": [{"molecule": "CC(C)C[C@H](NC(=O)[C@H](Cc1ccc(O)cc1)NC(=O)[C@@H](CCCNC(=N)N)NC(=O)[C@@H](CO)NC(=O)[C@H](Cc1ccccc1)NC(=O)[C@H](CC1CCCCC1)NC(=O)[C@@H](N)CC(=O)O)C(=O)N[C@@H](Cc1c[nH]c2ccccc12)C(=O)N[C@@H](CO)C(=O)O", "note": "[AE105]", "values": [{"measurement": "kon", "setting": "uPAR^1−283 [1]", "result": "1.01e+06 ± 3000", "unit": "M⁻¹ s⁻¹"}, {"measurement": "koff", "setting": "uPAR^1−283 [1]; pH 7.4, 20°C", "result": "0.00413 ± 1e-05", "unit": "s⁻¹"}]}, {"molecule": "CC(C)C[C@H](NC(=O)[C@H](Cc1ccc(O)cc1)NC(=O)[C@@H](CCCNC(=N)N)NC(=O)[C@@H](CO)NC(=O)[C@H](CCC(=O)O)NC(=O)[C@H](CC1CCCCC1)NC(=O)[C@@H](N)CC(=O)O)C(=O)N[C@@H](CCC(=O)O)C(=O)N[C@@H](CO)C(=O)O", "note": "[AE105mut] (H-D[Cha]E[dS][dR]YLES-OH)", "values": [{"measurement": "Kd", "setting": "uPAR^1−283 [1]; immobilized uPAR, pH 7.4, 20°C, simple bimolecular interaction model, read-out: KD (equilibrium dissociation constant, koff/kon)", "result": "> 200", "unit": "nM"}, {"measurement": "IC50", "setting": "uPAR·uPA interaction", "result": "> 1000", "unit": "nM"}]}, {"molecule": "CC(C)C[C@H](NC(=O)[C@H](Cc1ccc(O)cc1)NC(=O)[C@@H](CCCNC(=N)N)NC(=O)[C@@H](CO)NC(=O)[C@H](Cc1ccccc1)NC(=O)[C@H](CC1CCCCC1)NC(=O)[C@H](CC(=O)O)NC(=O)c1ccc(CN(CC(=O)O)[C@@H]2CCCC[C@H]2N(CC(=O)O)CC(=O)O)cc1)C(=O)N[C@@H](Cc1c[nH]c2ccccc12)C(=O)N[C@@H](CO)C(=O)O", "note": "[RESCA1-AE105]", "values": [{"measurement": "kon", "setting": "uPAR^1−283 [1]", "result": "292000 ± 1000", "unit": "M⁻¹ s⁻¹"}, {"measurement": "koff", "setting": "uPAR^1−283 [1]; pH 7.4, 20°C", "result": "0.014 ± 2e-05", "unit": "s⁻¹"}]}, {"molecule": "B1", "values": [{"measurement": "koff", "setting": "uPAR^1−283 [2]", "result": 0.0125, "unit": "s⁻¹"}, {"measurement": "kon", "setting": "uPAR^1−283 [2]", "result": 224000, "unit": "M⁻¹ s⁻¹"}]}, {"molecule": "B2", "values": [{"measurement": "Kd", "setting": "uPAR^1−283 [2]", "result": 4.1, "unit": "nM"}, {"measurement": "IC50", "setting": "uPAR^1−283 [3]", "result": 8.86, "unit": "nM"}]}, {"molecule": "B3", "values": [{"measurement": "Kd", "setting": "uPAR^1−283 [2]", "result": 48, "unit": "nM"}, {"measurement": "IC50", "setting": "uPAR^1−283 [3]", "result": 76.7, "unit": "nM"}]}, {"molecule": "B4", "values": [{"measurement": "IC50", "setting": "uPAR^1−283 [3]", "result": "> 1000", "unit": "nM"}]}]}
